Laboratory results from PMC4609913.

Tests used:
[1] = target: recombinant ADAM12 (A Disintegrin and Metalloproteinase 12), activated by furin (UniProt O43184); test: enzyme inhibition assay (fluorogenic FRET-peptide protease activity); 6-point dilution of PA12 incubated with 5 nM recombinant ADAM12 for 10 min before the substrate; 15 uM Dabcyl-LAQAhomopheRSK(FAM)-NH2, 25 mM Tris pH 8, 10^-3% Brij-35, 10 mM CaCl2, 15 uM furin inhibitor 1, RT; Ki inferred from dose-response curves
[2] = target: recombinant ADAM12 (A Disintegrin and Metalloproteinase 12), activated by furin (UniProt O43184)

recombinant ADAM12 (A Disintegrin and Metalloproteinase 12), activated by furin, sequence (O43184 whole entry): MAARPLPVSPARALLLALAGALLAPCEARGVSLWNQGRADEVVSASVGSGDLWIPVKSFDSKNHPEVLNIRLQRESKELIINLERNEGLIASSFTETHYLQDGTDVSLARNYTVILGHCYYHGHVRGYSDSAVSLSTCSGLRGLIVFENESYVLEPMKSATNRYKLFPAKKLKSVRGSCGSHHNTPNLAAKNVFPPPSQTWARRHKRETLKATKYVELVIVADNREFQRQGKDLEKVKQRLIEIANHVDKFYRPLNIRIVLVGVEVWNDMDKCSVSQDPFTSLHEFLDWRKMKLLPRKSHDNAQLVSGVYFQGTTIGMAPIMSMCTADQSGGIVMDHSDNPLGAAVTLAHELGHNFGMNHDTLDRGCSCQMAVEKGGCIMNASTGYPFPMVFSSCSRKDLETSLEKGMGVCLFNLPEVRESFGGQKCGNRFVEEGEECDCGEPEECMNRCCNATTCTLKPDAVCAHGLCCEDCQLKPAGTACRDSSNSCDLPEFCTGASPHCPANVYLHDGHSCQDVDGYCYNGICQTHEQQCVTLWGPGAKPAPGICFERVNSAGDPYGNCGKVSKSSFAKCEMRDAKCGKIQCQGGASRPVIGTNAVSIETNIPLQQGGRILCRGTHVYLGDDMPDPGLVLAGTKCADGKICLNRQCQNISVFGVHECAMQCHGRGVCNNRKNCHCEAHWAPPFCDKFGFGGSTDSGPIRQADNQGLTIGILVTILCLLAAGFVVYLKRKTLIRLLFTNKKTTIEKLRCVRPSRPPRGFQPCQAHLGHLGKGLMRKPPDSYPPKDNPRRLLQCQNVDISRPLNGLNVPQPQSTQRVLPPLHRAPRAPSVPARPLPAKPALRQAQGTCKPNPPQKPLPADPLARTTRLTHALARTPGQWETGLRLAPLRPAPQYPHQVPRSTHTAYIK

Ki [1]: 430 nM | relative level of intact transmembrane HB-EGF on 12Z-HE cells (live-cell Myc immunostaining, flow cytometry) after 2 uM PA12 for 3 h [2]: 20%
B1: recombinant His-tagged human ADAM12 prodomain (amino acids 29-206) (domain or fragment)
chain: RGVSLWNQGRADEVVSASVGSGDLWIPVKSFDSKNHPEVLNIRLQRESKELIINLERNEGLIASSFTETHYLQDGTDVSLARNYTVILGHCYYHGHVRGYSDSAVSLSTCSGLRGLIVFENESYVLEPMKSATNRYKLFPAKKLKSVRGSCGSHHNTPNLAAKNVFPPPSQTWARRHK
